Measurements as given in patent WO2021180110A1 (dated 2021).

T1: CD147-his fusion protein (human, UniProt P35613 22-205)
T1 sequence: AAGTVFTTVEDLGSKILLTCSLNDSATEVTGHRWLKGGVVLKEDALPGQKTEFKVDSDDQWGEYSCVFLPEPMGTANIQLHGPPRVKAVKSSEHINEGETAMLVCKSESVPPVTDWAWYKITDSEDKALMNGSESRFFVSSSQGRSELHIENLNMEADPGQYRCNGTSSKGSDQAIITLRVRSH

T2: CD147-Tag fusion protein (human, UniProt P35613-2 22-205)
T2 sequence (looked up): T1 sequence

B1: anti-human BASIGIN humanized antibody (antibody, V domains shown)
VH: EVQLVESGGGLVQPGGSLRLSCAASGFTFSNFWMNWVRQAPGKGLEWVSEIRLKSNNYATHYAESVKGRFTISRDDSKNTLYLQMNSLKTEDTAVYYCTSYDYEYWGQGTLVTVSA
VL: DIQMTQSPSTLSASVGDRVTLSCKASENVGTYVSWYQQKPGKAPKLLIYGASNRYTGVPSRFTGSGSGTDFTLTISSLQPEDFATYYCGQSYSYPFTFGSGTKLEIK
B2: CD147 (receptor, human, UniProt P35613-2 22-205, looked up)
chain: T1 sequence
notes: also called BASIGIN; EMMPRIN

What was measured:
CD147-his fusion protein = molecular target: T1, CD147-his fusion protein
[1] = molecular target: CD147 on Vero E6 host cells; test: cell-based or functional assay
CD147-Tag fusion protein = molecular target: T2, CD147-Tag fusion protein
cyclophilin A (CyPA) [2] = molecular target: T3, cyclophilin A (CyPA) (UniProt P62937 1-165)
cyclophilin A (CyPA) [3] = molecular target: T3, cyclophilin A (CyPA); test: ELISA; format not described

T3 sequence (P62937 whole entry): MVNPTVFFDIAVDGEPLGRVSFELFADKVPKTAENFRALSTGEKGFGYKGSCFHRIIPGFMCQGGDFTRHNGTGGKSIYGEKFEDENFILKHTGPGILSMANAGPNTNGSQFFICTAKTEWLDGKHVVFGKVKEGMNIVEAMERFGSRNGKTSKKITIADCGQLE

Binder | IC50 (CD147-his fusion protein) [µg/mL] | EC50 of inhibition of cytopathic effect of COVID-19 virus on Vero E6 cells [1] [µg/mL] | IC50 (CD147-Tag fusion protein) [µg/mL] | Kd (cyclophilin A (CyPA) [2]) [µM] | koff (cyclophilin A (CyPA) [2]) [s⁻¹] | EC50 (cyclophilin A (CyPA) [3]) [µg/mL]
B1 | 16.4 | 36 | 1.28 |  |  | 
B2 |  |  |  | ~8.7 | 0.0008 | 135
